Experimental data: paper PMC10949331, “Labile assembly of a tardigrade protein induces biostasis” (Protein Science : A Publication of the Protein Society, 2024)

Biological target: the molecule itself
Test: cross-linking; 1 mg/mL of each protein with increasing BS3 amine ester crosslinker (0.8-8 mM), 30 min at room temperature; denaturing SDS-PAGE, Coomassie blue

B1: Cytoplasmic Abundant Heat Soluble protein D (CAHS D), wild type (natural protein, Hypsibius exemplaris, UniProt P0CU50 1-227, looked up)
chain: MSGRNVESHMERNEKVVVNNSGHADVKKQQQQVEHTEFTHTEVKAPLIHPAPPIISTGAAGLAEEIVGQGFTASAARISGGTAEIHLQPSAAMTEEARRDQERYRQEQESIAKQQEREMEKKTEAYRKTAEAEAEKIRKELEKQHARDVEFRKDLIESTIDRQKREVDLEAKMAKRELDREGQLAKEALERSRLATNVEVNFDSAAGHTVSGGTTVSTSDKMEIKRN
notes: CAHS D of the tardigrade Hypsibius exemplaris, 227 residues, UniProt P0CU50; Cloned into pET28b; also called CAHS8_HYPEX; CAHS 94063; source: E. coli BL21 (DE3), purified (heat lysis, cation exchange in 8 M urea, dialysis, lyophilised)
binding result: binds
